Broadly, the Kd is the free concentration of one partner at which half of the binding sites on the other are occupied at equilibrium, for simple one-to-one binding.

Data set [1] has as its target T1, His-HupS (nonacetylated, -AcP) (Streptomyces venezuelae) (UniProt F2R5C9).
T1 sequence: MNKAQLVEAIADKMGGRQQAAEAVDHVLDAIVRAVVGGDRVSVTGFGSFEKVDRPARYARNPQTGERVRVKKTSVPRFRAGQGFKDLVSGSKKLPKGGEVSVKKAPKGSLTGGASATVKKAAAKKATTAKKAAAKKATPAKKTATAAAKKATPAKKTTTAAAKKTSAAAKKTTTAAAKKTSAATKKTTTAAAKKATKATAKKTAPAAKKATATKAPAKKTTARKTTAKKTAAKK
Kind of data set: BLI. The settings on record: 1 mM Mg2+; BLI: 100 mM Tris-HCl pH 8.0, 200 mM NaCl, 1 mM MgCl2, 0.005% Tween-20, 0.1 mg/ml BSA, 30 C; EMSA: 50 mM Tris-HCl pH 8.0, 150 mM NaCl, 0.02% Tween-20, 10 mM Mg …. (Mobility shift assays separate free from complexed probe on a gel.)

Data set [2] concerns the target T2, His-HupS acetylated in vitro (+AcP) (Streptomyces venezuelae) (UniProt F2R5C9).
T2 sequence: T1 sequence
Kind of data set: BLI. The following applies: 1 mM Mg2+; lysine-acetylated; BLI: 100 mM Tris-HCl pH 8.0, 200 mM NaCl, 1 mM MgCl2, 0.005% Tween-20, 0.1 mg/ml BSA, 30 C; EMSA: 50 mM Tris-HCl pH 8.0, 150 mM NaCl, 0.02% Tween-20, 10 mM Mg ….

Turning to one-end biotinylated dsDNA 300 bp, the Kd in data set [1] was 17.4 nM; in data set [2], 28.6 nM.
Taken in the same sequence, the figures for two-ends biotinylated dsDNA 300 bp were 11.3 nM and 20 nM.

For the origin of these results see paper PMC11229371, “The activity of CobB1 protein deacetylase contributes to nucleoid compaction in Streptomyces venezuelae spores by increasing HupS affinity for DNA” (Nucleic Acids Research, 2024).
